Residue numbers refer to the chain shown, from its start. Blank lines part the entries; values can stand above or below the binder they belong to.
Experiments:
[1] = biological target: human TSHR on stably transfected CHO cells (human, UniProt P16473 21-764); assay: cell-based or functional assay
[2] = biological target: T1, human TSHR immobilised on coated tubes (TRAK II [DYNOtest human] kit) (human, UniProt P16473 21-764, limits assumed); assay: TBII assay, displacement of 125I-TSH from human TSHR coated tubes (TRAK II DYNOtest human)
T1 construct: Receptor of a bought kit; also called human TSHR coated tubes; immobilized human TSHR

[3] = biological target: T1, human TSHR immobilised on coated tubes …; assay: saturation binding of 125I-IgG on human TSHR coated tubes (TRAK II DYNOtest human); printed as Kd but expressed as reciprocal Kd (L/mol)
Method: Free isotope was removed by gel filtration in SEPHAROSE™ G25 columns and specific activity calculated (7). Antibody affinity was measured by saturation binding analysis. […] The affinity results were expressed as reciprocal Kd values (L/mol).
The labeled IgG and Fab fragments of the mabs were then used as tracers in competition studies to study the epitopes on the receptor. […] Serum from normal individuals, with no family history of autoimmunity were used as controls.

EC50 of cAMP stimulation, NaCl-free sucrose HBSS [1]: 9.4 ng/mL | EC50 of cAMP stimulation, physiological NaCl HBSS [1]: 16.5 ng/ml | IgG concentration giving 3 fold cAMP stimulation [1]: 1.2 ng/mL | maximal stimulation of cAMP, fold over basal value [1]: 199 fold over basal | IC50 [2]: 3.3 ng/mL | Ka [3]: 4.5e+10 M⁻¹
B1: KSAb1 IgG (antibody, V domains shown)
VH: EVQLQQSGPELVKPGASMKISCKASGYSFSAYTMNWVKQSHGKNLEWIGLINPYNGGTNYNQEFEGKATLTVNKSSNTAFMELLSLTSDDSAVYYCARRDWDYFDYWGQGTTLTVSS
VL: DIVMTQSQKFMSTSVGDRVSIICKASQNVGTFVAWYQQKPGQSPKLLVYSASNRYTGVPDRFTGSGSGTDFTLTINNMQSEDLADYFCRQYSSYPYTFGGGTKLEI
notes: also called mAb9; IgG 9

EC50 of cAMP stimulation, NaCl-free sucrose HBSS [1]: 93 ng/mL | EC50 of cAMP stimulation, physiological NaCl HBSS [1]: 100 ng/ml | IgG concentration giving 3 fold cAMP stimulation [1]: 2.2 ng/mL | maximal stimulation of cAMP, fold over basal value [1]: 183 fold over basal | IC50 [2]: 10 ng/mL | Ka [3]: 6.25e+10 M⁻¹
B2: KSAb2 IgG (antibody, V domains shown)
VH: B1 VH with S30T, S40T, E63K, G66D, N73D, F80Y, E82D, D89E
VL: DVVMTQSQKFLSTSAGDRVSISCKASQNVGTALAWYQQKPGQSPKLLIYSASNRNTGVPDRFTGRGFGTDFTLTISNMQSEDLADYFCQQYSSYPYTFGGGTRLEI
notes: also called mAb17; IgG17

Reference: US8603466 (KING S COLLEGE LONDON, dated 2013)
